Laboratory results reported in US20240270846A1 (published 2024).
Substitutions are numbered along the chain they refer to.

B1: CE115HA000 H chain altered form K43E (antibody, human IgG1, kappa, L234A L235A, N297A, name in Kabat numbering)
heavy: QVQLVESGGGVVQPGRSLRLSCAASGFTFSNAWMHWVRQAPGEGLEWVAQIKAKSNNYATYYAESVKGRFTISRDDSKNSLYLQMNSLKTEDTAVYYCRYVHYGAYYGVDAWGQGTTVTVSSASTKGPSVFPLAPSSKSTSGGTAALGCLVKDYFPEPVTVSWNSGALTSGVHTFPAVLQSSGLYSLSSVVTVPSSSLGTQTYICNVNHKPSNTKVDKKVEPKSCDKTHTCPPCPAPEAAGGPSVFLFPPKPKDTLMISRTPEVTCVVVDVSHEDPEVKFNWYVDGVEVHNAKTKPREEQYASTYRVVSVLTVLHQDWLNGKEYKCKVSNKALPAPIEKTISKAKGQPREPQVYTLPPSRCELTKNQVSLSCAVKGFYPSDIAVEWESNGQPENNYKTTPPVLDSDGSFFLVSKLTVDKSRWQQGNVFSCSVMHEALHNHYTQKSLSLSPDYKDDDDK
chain: EPKSSDKTHTCPPCPAPELLGGPSVFLFPPKPKDTLMISRTPEVTCVVVDVSHEDPEVKFNWYVDGVEVHNAKTKPREEQYNSTYRVVSVLTVLHQDWLNGKEYKCKVSNKALPAPIEKTISKAKGQPREPQVCTLPPSRDELTKNQVSLWCLVKGFYPSDIAVEWESNGQPENNYKTTPPVLDSDGSFFLYSKLTVDKSRWQQGNVFSCSVMHEALHNRYTQKSLSLSP
light: DIVMTQSPLSLPVTPGEPASISCRSSQSLVHSNRNTYLHWYQQKPGQAPRLLIYKVSNRFSGVPDRFSGSGSGTDFTLKISRVEAEDVGVYYCGQGTQVPYTFGQGTKLEIKRTVAAPSVFIFPPSDEQLKSGTASVVCLLNNFYPREAKVQWKVDNALQSGNSQESVTEQDSKDSTYSLSSTLTLSKADYEKHKVYACEVTHQGLSSPVTKSFNRGEC
notes: one-arm antibody
B2: CE115HA000 H chain altered form K43Q (antibody, human IgG1, kappa, L234A L235A, N297A, name in Kabat numbering)
heavy: B1 heavy with E43Q
chain: B1 chain
light: B1 light
notes: one-arm antibody
B3: CE115HA000 H chain altered form K52D (antibody, human IgG1, kappa, L234A L235A, N297A, name in Kabat numbering)
heavy: B1 heavy with E43K, K52D
chain: B1 chain
light: B1 light
notes: one-arm antibody
B4: CE115HA000 H chain altered form K52E (antibody, human IgG1, kappa, L234A L235A, N297A, name in Kabat numbering)
heavy: B1 heavy with E43K, K52E
chain: B1 chain
light: B1 light
notes: one-arm antibody
B5: CE115HA000 H chain altered form K52F (antibody, human IgG1, kappa, L234A L235A, N297A, name in Kabat numbering)
heavy: B1 heavy with E43K, K52F
chain: B1 chain
light: B1 light
notes: one-arm antibody
B6: CE115HA000 H chain altered form K52H (antibody, human IgG1, kappa, L234A L235A, N297A, name in Kabat numbering)
heavy: B1 heavy with E43K, K52H
chain: B1 chain
light: B1 light
notes: one-arm antibody
B7: CE115HA000 H chain altered form K52I (antibody, human IgG1, kappa, L234A L235A, N297A, name in Kabat numbering)
heavy: B1 heavy with E43K, K52I
chain: B1 chain
light: B1 light
notes: one-arm antibody
B8: CE115HA000 H chain altered form K52N (antibody, human IgG1, kappa, L234A L235A, N297A, name in Kabat numbering)
heavy: B1 heavy with E43K, K52N
chain: B1 chain
light: B1 light
notes: one-arm antibody
B9: CE115HA000 H chain altered form K52R (antibody, human IgG1, kappa, L234A L235A, N297A, name in Kabat numbering)
heavy: B1 heavy with E43K, K52R
chain: B1 chain
light: B1 light
notes: one-arm antibody
B10: CE115HA000 H chain altered form K52S (antibody, human IgG1, kappa, L234A L235A, N297A, name in Kabat numbering)
heavy: B1 heavy with E43K, K52S
chain: B1 chain
light: B1 light
notes: one-arm antibody
B11: CE115HA000 H chain altered form K52W (antibody, human IgG1, kappa, L234A L235A, N297A, name in Kabat numbering)
heavy: B1 heavy with E43K, K52W
chain: B1 chain
light: B1 light
notes: one-arm antibody
B12: CE115HA000 H chain altered form K52Y (antibody, human IgG1, kappa, L234A L235A, N297A, name in Kabat numbering)
heavy: B1 heavy with E43K, K52Y
chain: B1 chain
light: B1 light
notes: one-arm antibody
B13: CE115HA000 H chain altered form K52bA (antibody, human IgG1, kappa, L234A L235A, N297A, name in Kabat numbering)
heavy: B1 heavy with E43K, K54A
chain: B1 chain
light: B1 light
notes: one-arm antibody
B14: CE115HA000 H chain altered form K52bD (antibody, human IgG1, kappa, L234A L235A, N297A, name in Kabat numbering)
heavy: B1 heavy with E43K, K54D
chain: B1 chain
light: B1 light
notes: one-arm antibody
B15: CE115HA000 H chain altered form K52bL (antibody, human IgG1, kappa, L234A L235A, N297A, name in Kabat numbering)
heavy: B1 heavy with E43K, K54L
chain: B1 chain
light: B1 light
notes: one-arm antibody
B16: CE115HA000 H chain altered form K52bN (antibody, human IgG1, kappa, L234A L235A, N297A, name in Kabat numbering)
heavy: B1 heavy with E43K, K54N
chain: B1 chain
light: B1 light
notes: one-arm antibody
B17: CE115HA000 H chain altered form K52bQ (antibody, human IgG1, kappa, L234A L235A, N297A, name in Kabat numbering)
heavy: B1 heavy with E43K, K54Q
chain: B1 chain
light: B1 light
notes: one-arm antibody
B18: CE115HA000 H chain altered form K52bR (antibody, human IgG1, kappa, L234A L235A, N297A, name in Kabat numbering)
heavy: B1 heavy with E43K, K54R
chain: B1 chain
light: B1 light
notes: one-arm antibody
B19: CE115HA000 H chain altered form K52bS (antibody, human IgG1, kappa, L234A L235A, N297A, name in Kabat numbering)
heavy: B1 heavy with E43K, K54S
chain: B1 chain
light: B1 light
notes: one-arm antibody
B20: CE115HA000 H chain altered form K52bY (antibody, human IgG1, kappa, L234A L235A, N297A, name in Kabat numbering)
heavy: B1 heavy with E43K, K54Y
chain: B1 chain
light: B1 light
notes: one-arm antibody
B21: CE115HA000 H chain altered form N31A (antibody, human IgG1, kappa, L234A L235A, N297A, name in Kabat numbering)
heavy: B1 heavy with N31A, E43K
chain: B1 chain
light: B1 light
notes: one-arm antibody
B22: CE115HA000 H chain altered form N31D (antibody, human IgG1, kappa, L234A L235A, N297A, name in Kabat numbering)
heavy: B1 heavy with N31D, E43K
chain: B1 chain
light: B1 light
notes: one-arm antibody
B23: CE115HA000 H chain altered form N31F (antibody, human IgG1, kappa, L234A L235A, N297A, name in Kabat numbering)
heavy: B1 heavy with N31F, E43K
chain: B1 chain
light: B1 light
notes: one-arm antibody

What follows are binders tested against T1, CD3 epsilon homodimer protein (UniProt P07766 23-126) (assay: SPR Biacore T200, CD3 epsilon homodimer on chip, antibody as analyte;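 also: homodimer amine-coupled to a CM4 sensor chip, run at 25 °C in HBS-EP+ buffer, with kinetic parameters derived in Biacore T200 Evaluation Software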).
T1 construct: also called CD3 (CD3 epsilon)
T1 sequence (P07766 23-126): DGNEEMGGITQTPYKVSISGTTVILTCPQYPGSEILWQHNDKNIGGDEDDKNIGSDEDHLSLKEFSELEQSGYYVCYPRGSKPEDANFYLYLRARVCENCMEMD

Going from B1 to B2, the “KD ratio (KD of CE115HA000 / KD of altered form)” value rises from 0.88 to 0.89.

Going from B3 to B4, the “KD ratio (KD of CE115HA000 / KD of altered form)” value falls from 166 to 19.4.

Going from B5 to B6, the “KD ratio (KD of CE115HA000 / KD of altered form)” value falls from 4.04 to 2.65.

Compared with B7, B8 is lower in “KD ratio (KD of CE115HA000 / KD of altered form)” value: 3.54 for the first, 3.29 for the second.

Compared with B9, B10 is higher in “KD ratio (KD of CE115HA000 / KD of altered form)” value: 0.8 for the first, 92.1 for the second.

Going from B11 to B12, the “KD ratio (KD of CE115HA000 / KD of altered form)” value rises from 2.69 to 6.47.

First: B13
Second: B14
The “KD ratio (KD of CE115HA000 / KD of altered form)” value of the first is higher: 0.58 for the first, 0.56 for the second.

Going from B15 to B16, the “KD ratio (KD of CE115HA000 / KD of altered form)” value falls from 0.61 to 0.43.

First: B17
Second: B18
The “KD ratio (KD of CE115HA000 / KD of altered form)” value of the first is lower: 0.62 for the first, 0.91 for the second.

First: B19
Second: B20
The “KD ratio (KD of CE115HA000 / KD of altered form)” value of the first is lower: 0.58 for the first, 0.61 for the second.

Compared with B21, B22 is higher in “KD ratio (KD of CE115HA000 / KD of altered form)” value: 0.96 for the first, 1.14 for the second.

In the case of B23, the “KD ratio (KD of CE115HA000 / KD of altered form)” value is reported as 1.24.
